Consider three molecules from patent publication US20220127350A1 (NUMAB THERAPEUTICS, published 2022).

Where only a bound is given, the exact number is not on record here.

Assay [1] has as its target T1, human IL-17A (human, UniProt Q16552 24-155).
T1 construct: Recombinant human IL-17A (Peprotech Cat. No. 200-17), disulfide-linked homodimer from E. coli; Biotinylated or RPE-labelled in some assays; also called hIL-17A; IL-17A-RPE (labelled)
The experiment in a line: competitive ELISA: IL-17RA coated, biotinylated IL-17A preincubated with scFv. For orientation: An ELISA detects its analyte on a solid surface through an enzyme-linked reagent.
Method: Finally, Tetramethylbenzidin solution (KPL, Cat. No. 53-00-00) was added to develop the plate for 5 to 10 minutes and the reaction was stopped with 1 M HCl. The plate was read using a microtiter plate reader (Infinity reader M200 Pro, Tecan) at a wavelength of 450 nm and 570 nm (reference wavelength).

In assay [2] the target is T1, human IL-17A. The experiment in a line: SPR (Biacore T200), capture setup: biotinylated IL-17A captured, scFv as analyte. (SPR reads the build-up and loss of mass on a sensor chip optically.)
Method: (§1) After each analyte injection cycle the CAP sensor chip was regenerated and new antigen was captured. The scFvs were injected as analyte using a dose response multi-cycle kinetic assay with concentrations of the analyte ranging from 0.35 to 90 nM diluted in running buffer. Obtained sensorgrams were fitted using the 1:1 binding model. In addition, the scFvs were analyzed in an alternative SPR assay setup (“direct setup”).
For assay [3], the target named is T2, cynomolgus monkey IL-17A (Macaca fascicularis (cynomolgus monkey)).
T2 construct: also called cyno IL-17A; cyno IL17A
The experiment in a line: SPR (Biacore T200).
Method: as §1

Assay [4] concerns the target T1, human IL-17A. The experiment in a line: SPR (Biacore T200), direct setup: IL-17A amine-coupled on CM5, scFv as analyte.
Method: as §1
For assay [5], the target named is T2, cynomolgus monkey IL-17A. Briefly: SPR (Biacore T200), cynomolgus IL-17A, scFv as analyte.
Method: as §1
The target in assay [6] is T1, human IL-17A. Briefly: cell-based or functional assay.
Assay [7] has as its target T3, human TNFα (human, UniProt P01375 77-233). Briefly: cell-based or functional assay.
Assay [8] concerns the target T1, human IL-17A. The experiment in a line: SPR (summary table), affinity to human IL-17, capture setup.
Method: (§2) In this experiment, the biotinylated antigens were captured using the Biotin-CAPture kit from Biacore. After each analyte injection cycle the CAP sensor chip was regenerated and new antigen was captured. Trispecific molecules were injected as analyte using a dose response multicycle kinetic assay with concentrations of the analyte ranging from 0.35 to 90 nM diluted in running buffer. Obtained sensorgrams were fitted using the 1:1 binding model.
Assay [9] has as its target T3, human TNFα. The experiment in a line: cell-based or functional assay. The source holds these as a separate data set.
The target in assay [10] is T1, human IL-17A. The experiment in a line: cell-based or functional assay. The source holds these as a separate data set.
Assay [11] has as its target T4, human serum albumin (human, UniProt P02768 25-609).
T4 construct: also called HSA
Briefly: SPR (MASS-1), HSA immobilised, trispecific as analyte, pH 5.5.
Method: (§3) The binding to human serum albumin (HSA) and cynomolgus serum albumin (CSA) was assessed for purified trispecific molecules by running SPR spectroscopy on a MASS-1 device (Sierra Sensors). HSA was directly immobilized on a high capacity amine sensor chip (Sierra Sensors) and trispecific molecules were injected as analyte using a dose response multicycle kinetic assay with concentrations of the analyte ranging from 0.35 to 90 nM diluted either in running buffer at pH5.5 or pH7.5. Obtained sensorgrams were fitted using the 1:1 binding model. Affinity to CSA was assessed in a similar approach using a CSA immobilized sensor chip.

Assay [12] has as its target T1, human IL-17A. Briefly: competitive ELISA, blocking of IL-17A/IL-17RA interaction (summary table).
Method: (§4) Finally, Tetramethylbenzidine solution was added to develop the plate for 5 to 10 minutes and the reaction was stopped with 1 M HCl. The plate was read at 450 nm and 570 nm (reference wavelength).
Assay [13] addresses T3, human TNFα. Briefly: SPR (Biacore T200), biotinylated antigen captured (Biotin-CAPture), trispecific as analyte.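 Also: multicycle dose-response kinetics, analyte at 0.35–90 nM in running buffer, CAP chip regenerated with fresh antigen each cycle, sensorgrams fitted to a 1:1 binding model.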
Method: as §2
In assay [14] the target is T1, human IL-17A. The description is as above.
Method: as §2
Assay [15] deals with T1, human IL-17A. Briefly: competitive ELISA: IL-17RA coated, biotinylated IL-17A preincubated with trispecific molecule.
Method: as §4
For assay [16], the target named is T4, human serum albumin. Briefly: SPR (MASS-1), HSA immobilised, trispecific as analyte, pH 7.4.
Method: as §3
The target in assay [17] is T1, human IL-17A. Briefly: competitive ELISA: biotinylated human IL-17A preincubated with the trispecific molecule, then binding to coated IL-17RA detected (blocked ligand: IL-17RA) [left panel].
Assay [18] has as its target T4, human serum albumin. Briefly: SPR (summary table), affinity to HSA at pH 5.5.
Method: as §3
Assay [19] addresses T3, human TNFα. The experiment in a line: SPR (MASS-1), trispecific immobilised, antigens injected sequentially.
Method: (§5) All possible sequences of antigen injection were tested resulting in six possible sequences.
(§6) To evaluate concomitant binding of each antigen to trispecific molecules, the binding level relative to the theoretical Rmax was calculated for each injection using the respective ligand and analyte molecular masses and the immobilization level of the trispecific molecules. The average of the maximum binding relative to theoretical Rmax for each antigen was obtained by averaging individual maximum binding relative to theoretical Rmax obtained for the two injections where the respective antigen was injected as first analyte (in the absence of other bound antigens). Next, the binding relative to the theoretical Rmax of each analyte injection was compared to its average maximum binding to calculate the fraction binding obtained in the presence of other bound antigens. […] The binding levels relative to the theoretical Rmax and the average of maximum binding (binding levels in the absence of other antigens) of each antigen were calculated.
Assay [20] deals with T1, human IL-17A. The description is as above.
Method: as §5, §6
The target in assay [21] is T4, human serum albumin. The assay is described as above.
Method: as §5, §6
In assay [22] the target is T3, human TNFα. The experiment in a line: SPR (summary table), affinity to human TNF.
Method: as §2
The target in assay [23] is T4, human serum albumin. Briefly: SPR (MASS-1), trispecific immobilised, HSA injected as last analyte.
Method: as §5, §6

B1: A2 (humanized anti-IL-17A scFv, STR graft of 27-07-G02) (scFv)
scFv: DIQMTQSPSSLSASVGDRVTITCQASQTINYWLAWYQQKPGKPPKLLIYRASTLASGVPSRFSGSGSGTDFTLTISSLQPEDFATYYCQNYYYSTSRSYGFGGGTKLTVLGGGGGSGGGGSGGGGSGGGGSEVQLVESGGGLVKPEGSLRLSCAASGFSFSSDYWMCWVRQAPGKGLEWIACIYAGDVDDTDYASWARGRFTISRDNSKNTVYLQMNSLRAEDTAVYYCARVDGFDITYFDLWGQGTLVTVSS
notes: VL-linker-VH; also called 27-07-G02-sc02
As for B1, in the assay with human IL-17A [1], the IC50 (as a rule, the concentration at which inhibition is half-maximal) amounted to 1.6 ng/mL. For the same molecule, in the assay with human IL-17A [2], binding was characterised by a dissociation constant (Kd) of 3.07 nM, the koff (usually a measure of how fast the partners let go of each other) turned out to be 0.000697 s⁻¹ and the kon (commonly the rate constant with which the complex forms) came out at 227000 M⁻¹ s⁻¹. The “KD, cyno/KD, human” value in the assay with cynomolgus monkey IL-17A [3] is 1.69. Further, in the assay with human IL-17A [4], the Kd (usually a measure of binding affinity in units of concentration) was 0.0551 nM, the koff was found to be 5.92e-05 s⁻¹ and the kon stood at 1.08e+06 M⁻¹ s⁻¹. In the assay with cynomolgus monkey IL-17A [5], this molecule gave a Kd of 5.19 nM, a koff of 0.000868 s⁻¹ and a kon of 167000 M⁻¹ s⁻¹. Further, the “IC50 in HT-29 assay, GRO-α secretion” value in the assay with human IL-17A [6] worked out at 0.1 ng/mL.

B2: A3 (trispecific tribody, Fab-(scFv)2) (other)
light: DIQMTQSPSSLSASVGDRVTITCQSSESVYSNNQLSWYQQKPGQPPKLLIYDASDLASGVPSRFSGSGSGTDFTLTISSLQPEDFATYYCAGGFSSSSDTAFGGGTKLTVLGRTRTVAAPSVFIFPPSDEQLKSGTASVVCLLNNFYPREAKVQWKVDNALQSGNSQESVTEQDSKDSTYSLSSTLTLSKADYEKHKVYACEVTHQGLSSPVTKSFNRGECGGGGSGGGGSDIQMTQSPSSLSASVGDRVTINCQASESISSWLAWYQQKPGKRPKLLIYKASTLASGVPSRFSGSGSGTDYTLTISSLQPEDFATYYCQGYYLDSSVDDNVFGGGTKLTVLGGGGGSGGGGSGGGGSGGGGSEVQLVESGGGLVQPGGSLRLSCAASGIDFSTYGISWVRQAPGKGLEWIAYIYPDYGITDYASWVNGRFTISLDNAQNTVYLQMNSLRAEDTAVYYCARSGSYYSRGWGAHYFNLWGQGTLVTVSS
heavy: EVQLVESGGGLVQPGGSLRLSCAASGFSLSSNAMGWVRQAPGKGLEYIGIISVGGFTYYASWAKGRFTISRDNSKNTVYLQMNSLRAEDTATYFCARDRHGGDSSGAFYLWGQGTLVTVSSASTKGPSVFPLAPSSKSTSGGTAALGCLVKDYFPEPVTVSWNSGALTSGVHTFPAVLQSSGLYSLSSVVTVPSSSLGTQTYICNVNHKPSNTKVDKKVEPKSCGGGGSGGGGSDIQMTQSPSSLSASVGDRVTITCQASQTINYWLAWYQQKPGKAPKLLIYRASTLASGVPSRFSGSGSGTDFTLTISSLQPEDFATYYCQNYYYSTSRSYGFGGGTKLTVLGGGGGSGGGGSGGGGSGGGGSEVQLVESGGGLVQPGGSLRLSCAASGFSFSSDYWMCWVRQAPGKGLEWIGCIYAGDVDDTDYASWARGRFTISRDNSKNTVYLQMNSLRAEDTAVYYCARVDGFDITYFDLWGQGTLVTVSS
notes: Trispecific anti-IL-17A x TNFα x HSA tribody; Expressed in CHO-S
Turning to B2, in the assay with human TNFα [7], the “IC50 in L929 assay, cell viability” value came out at 4.5 nM. Further, in the assay with human TNFα [7], the “rel. IC50 in L929 assay (IC50, A13/IC50, test sample, nM)” value came to 0.003. Further, the Kd was 1.53 nM with human IL-17A [8]; 0.947 nM with human serum albumin [11]; less than 0.0232 nM in the assay with human TNFα [13]; 1.53 nM with human IL-17A [14]; 1.37 nM with human serum albumin [16]; 0.947 nM in the assay with human serum albumin [18]. In addition, in the assay with human TNFα [22], the Kd is less than 0.0232 nM. Besides, in the assay with human TNFα [9], the “rel. IC50 to A13 (nM) in HT-29 assay, +HSA” value turned out to be 0.5. Also, in the assay with human TNFα [9], the “rel. IC50 to A13 (nM) in HT-29 assay, -HSA” value stood at 0.2. Besides, the “rel. IC50 to secukinumab (ng/ml) in HT-29 assay, +HSA” value with human IL-17A [10] stood at 11.8. Moreover, in the assay with human IL-17A [10], the “rel. IC50 to secukinumab (ng/ml) in HT-29 assay, -HSA” value came to 2.4. In addition, the koff with human serum albumin [11] was 0.00059 s⁻¹; with human TNFα [13], less than 1e-06 s⁻¹; in the assay with human IL-17A [14], 9.04e-05 s⁻¹; in the assay with human serum albumin [16] it was 0.000557 s⁻¹. Moreover, the kon in the assay with human serum albumin [11] turned out to be 623000 M⁻¹ s⁻¹; with human TNFα [13], 43100 M⁻¹ s⁻¹; with human IL-17A [14] it was 59100 M⁻¹ s⁻¹; with human serum albumin [16] it was 406000 M⁻¹ s⁻¹. For the same molecule, the “rel. IC50 (IC50, secukinumab/IC50, test sample, ng/ml)” value in the assay with human IL-17A [12] is 2.2. In the assay with human IL-17A [15], the “rel. IC50 to secukinumab (IC50, secukinumab/IC50, test sample, ng/ml)” value was determined as 2.2. Besides, in the assay with human IL-17A [17], the “IC50 (read off the curve)” value was approximately 9 ng/mL. Moreover, the “antigen binding relative to average maximum binding” value with human TNFα [19], with human IL-17A [20] and with human serum albumin [21] was not below 70% in each case.

B3: A4 (trispecific tribody, Fab-(scFv)2) (other)
light: DIQMTQSPSSLSASVGDRVTITCQASQTINYWLAWYQQKPGKAPKLLIYRASTLASGVPSRFSGSGSGTDFTLTISSLQPEDFATYYCQNYYYSTSRSYGFGGGTKLTVLGRTRTVAAPSVFIFPPSDEQLKSGTASVVCLLNNFYPREAKVQWKVDNALQSGNSQESVTEQDSKDSTYSLSSTLTLSKADYEKHKVYACEVTHQGLSSPVTKSFNRGECGGGGSGGGGSDIQMTQSPSSLSASVGDRVTINCQASESISSWLAWYQQKPGKRPKLLIYKASTLASGVPSRFSGSGSGTDYTLTISSLQPEDFATYYCQGYYLDSSVDDNVFGGGTKLTVLGGGGGSGGGGSGGGGSGGGGSEVQLVESGGGLVQPGGSLRLSCAASGIDFSTYGISWVRQAPGKGLEWIAYIYPDYGITDYASWVNGRFTISLDNAQNTVYLQMNSLRAEDTAVYYCARSGSYYSRGWGAHYFNLWGQGTLVTVSS
heavy: EVQLVESGGGLVQPGGSLRLSCAASGFSFSSDYWMCWVRQAPGKGLEWIGCIYAGDVDDTDYASWARGRFTISRDNSKNTVYLQMNSLRAEDTAVYYCARVDGFDITYFDLWGQGTLVTVSSASTKGPSVFPLAPSSKSTSGGTAALGCLVKDYFPEPVTVSWNSGALTSGVHTFPAVLQSSGLYSLSSVVTVPSSSLGTQTYICNVNHKPSNTKVDKKVEPKSCGGGGSGGGGSDIQMTQSPSSLSASVGDRVTITCQSSESVYSNNQLSWYQQKPGQPPKLLIYDASDLASGVPSRFSGSGSGTDFTLTISSLQPEDFATYYCAGGFSSSSDTAFGGGTKLTVLGGGGGSGGGGSGGGGSGGGGSEVQLVESGGGLVQPGGSLRLSCAASGFSLSSNAMGWVRQAPGKGLEYIGIISVGGFTYYASWAKGRFTISRDNSKNTVYLQMNSLRAEDTATYFCARDRHGGDSSGAFYLWGQGTLVTVSS
notes: Trispecific tribody
For the molecule B3, in the assay with human TNFα [7], the “IC50 in L929 assay, cell viability” value turned out to be 0.08 nM. Moreover, the “rel. IC50 in L929 assay (IC50, A13/IC50, test sample, nM)” value in the assay with human TNFα [7] is 0.2. Further, the Kd with human IL-17A [8] came out at 0.337 nM; with human serum albumin [11] it was 1.67 nM; with human TNFα [13], 0.257 nM; in the assay with human IL-17A [14], 0.337 nM; with human serum albumin [16], 4.79 nM; with human serum albumin [18], 1.67 nM. Besides, the dissociation constant Kd in the assay with human TNFα [22] was 0.257 nM. Further, in the assay with human TNFα [9], the “rel. IC50 to A13 (nM) in HT-29 assay, +HSA” value was 0.3. For the same molecule, the “rel. IC50 to A13 (nM) in HT-29 assay, -HSA” value with human TNFα [9] was 0.6. In addition, the “rel. IC50 to secukinumab (ng/ml) in HT-29 assay, +HSA” value in the assay with human IL-17A [10] is 6. For the same molecule, the “rel. IC50 to secukinumab (ng/ml) in HT-29 assay, -HSA” value with human IL-17A [10] turned out to be 7.1. Besides, in the assay with human serum albumin [23], the “relative binding level compared to average maximum binding” value was approximately 70%. In addition, the koff with human serum albumin [11] was 0.000308 s⁻¹; in the assay with human TNFα [13], 2.33e-05 s⁻¹; with human IL-17A [14] it was 7.23e-05 s⁻¹; with human serum albumin [16] it was 0.000417 s⁻¹. Moreover, the kon in the assay with human serum albumin [11] turned out to be 185000 M⁻¹ s⁻¹; in the assay with human TNFα [13], 90800 M⁻¹ s⁻¹; with human IL-17A [14], 215000 M⁻¹ s⁻¹; in the assay with human serum albumin [16] it was 87200 M⁻¹ s⁻¹. The “rel. IC50 (IC50, secukinumab/IC50, test sample, ng/ml)” value in the assay with human IL-17A [12] amounted to 6.3. The “rel. IC50 to secukinumab (IC50, secukinumab/IC50, test sample, ng/ml)” value in the assay with human IL-17A [15] was determined as 6.3. The “IC50 (read off the curve)” value with human IL-17A [17] is approximately 3 ng/mL. Also, the “antigen binding relative to average maximum binding” value with human TNFα [19], in the assay with human IL-17A [20] and in the assay with human serum albumin [21] was not below 70% in each case.
